{
  "source": "paper PMC4947441",
  "substrate": "CCCC(=O)OP(=O)(O)O",
  "experiment": "purified protein",
  "assay_type": "biochemical, Listeria monocytogenes",
  "details": "500 µM CoA, 100 mM Tris pH 7.5, 25 °C",
  "data": [
    {"protein": "Ptb (phosphotransbutyrylase, LmPtb) (Listeria monocytogenes EGD-e) (protein) MTKSRFFSDVAETSSFVFAVAGADDEVVLETIRLALKQKLGKFLLFGKKEDKTLTANESVTWIQTDTAEAAAQGAILAVKNKEADILVKGFIPTATLMHHVLKKENGLRTDQLLSQIAIFDIPTYHKPLLITDCAMNVAPKTKEKIAITENALAVAHQIGITNPKIALLSAVEEVTAKMPSTLEAQEVVQHFGNQISVSGPLALDVAISKEAALHKGITDSSAGEADILIAPNIETGNALYKSLVYFAGAKVGSAVVGAKVPIVISSRNDSPENKLASFILTVRLVEK", "values": [
      {"measurement": "Km", "value": 1040, "unit": "µM"}
    ]}
  ]
}
